What all share (experiment): ELISA, coated antibody 1000 nM, 250 ng FLAG-tagged mutant Ang2, anti-FLAG-HRP, OD450
For assay [1], the target named is T1, mutant Ang2 protein, Q418 substituted with alanine, FLAG-tagged at its N-terminal (human, UniProt O15123 19-496, limits assumed).
T1 sequence: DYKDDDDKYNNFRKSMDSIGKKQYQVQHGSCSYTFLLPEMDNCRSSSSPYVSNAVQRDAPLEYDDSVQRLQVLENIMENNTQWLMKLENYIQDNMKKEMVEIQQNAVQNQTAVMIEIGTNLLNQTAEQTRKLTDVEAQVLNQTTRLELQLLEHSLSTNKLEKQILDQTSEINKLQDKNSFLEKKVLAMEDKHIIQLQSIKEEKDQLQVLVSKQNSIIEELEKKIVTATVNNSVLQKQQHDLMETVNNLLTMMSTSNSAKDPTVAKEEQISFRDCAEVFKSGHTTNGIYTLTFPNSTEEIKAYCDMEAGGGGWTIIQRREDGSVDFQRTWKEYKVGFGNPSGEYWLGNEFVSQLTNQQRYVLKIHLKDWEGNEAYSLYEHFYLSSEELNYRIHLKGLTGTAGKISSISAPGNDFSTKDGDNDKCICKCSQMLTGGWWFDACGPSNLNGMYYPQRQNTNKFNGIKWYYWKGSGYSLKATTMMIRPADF
Here is the method: (§1) Each well of a 96-well MaxiSorp™ flat-bottom plate (Nunc) was coated with 50 ul (microliter) of 1000 nM antibody. Then, the plate was washed five times with 0.05% (v/v) Tween-20-containing PBS (PBST) and blocked with 1% (v/v) BSA-containing PBS at a room temperature for 2 hours. 250 ng of each mutant Ang2 protein obtained by substituting S417, Q418, P419, N421, I434, D448, A449, P452, Y460, N467, K468, or F469 residue of Ang2 protein tagged with a FLAG sequence ([…], Sigma) at its N-terminal with alanine was added to each well of the plate, which was then allowed to react at a room temperature for 2 hours.
(§2) The plate was washed five times with 0.05% (v/v) Tween-20 containing PBS, reacted with an anti-FLAG antibody (SIGMA) conjugated with HRP which was diluted in 1% (v/v) BSA-containing PBS at a ratio of 1:5,000 (v/v) at a room temperature for 1 hour, and washed five times with 0.1% (v/v) Tween-20-containing PBS.
(§3) Finally, 50 ul of TMB substrates (Cell signaling) was added to each well of the plate to induce color development at a room temperature for 3 min. and the reaction was ceased by the addition of 50 ul of Stop solution (Cell signaling) and then, OD450 values were measured on a plate reader (Molecular Devices). By comparing binding affinities with mutated Ang2 to those of unmutated Ang2, each epitope of Ang2 antibodies was identified. The thus obtained measurement results of the binding affinities (%) with mutant Ang2 against the binding affinity with the native Ang2 are shown in the following Table 8.

For assay [2], the target named is T2, mutant Ang2 protein, F469 substituted with alanine, FLAG-tagged at its N-terminal (human, UniProt O15123 19-496, limits assumed).
T2 sequence: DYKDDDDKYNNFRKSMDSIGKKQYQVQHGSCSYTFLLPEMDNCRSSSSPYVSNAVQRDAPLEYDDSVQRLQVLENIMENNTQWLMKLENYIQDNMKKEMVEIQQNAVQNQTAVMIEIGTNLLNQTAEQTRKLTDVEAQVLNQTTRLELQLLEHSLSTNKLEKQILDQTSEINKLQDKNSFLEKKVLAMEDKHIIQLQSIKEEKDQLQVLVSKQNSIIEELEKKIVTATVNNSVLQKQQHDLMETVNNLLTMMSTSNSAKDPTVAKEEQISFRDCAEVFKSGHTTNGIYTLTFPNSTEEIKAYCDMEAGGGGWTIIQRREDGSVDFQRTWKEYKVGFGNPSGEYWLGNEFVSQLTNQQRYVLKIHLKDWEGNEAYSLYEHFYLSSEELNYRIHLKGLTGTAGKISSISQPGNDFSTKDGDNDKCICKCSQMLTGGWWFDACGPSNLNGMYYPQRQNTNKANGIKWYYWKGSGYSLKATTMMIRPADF
The protocol: as §1, §2, §3

Assay [3] has as its target T3, mutant Ang2 protein, N467 substituted with alanine, FLAG-tagged at its N-terminal (human, UniProt O15123 19-496, limits assumed).
T3 sequence: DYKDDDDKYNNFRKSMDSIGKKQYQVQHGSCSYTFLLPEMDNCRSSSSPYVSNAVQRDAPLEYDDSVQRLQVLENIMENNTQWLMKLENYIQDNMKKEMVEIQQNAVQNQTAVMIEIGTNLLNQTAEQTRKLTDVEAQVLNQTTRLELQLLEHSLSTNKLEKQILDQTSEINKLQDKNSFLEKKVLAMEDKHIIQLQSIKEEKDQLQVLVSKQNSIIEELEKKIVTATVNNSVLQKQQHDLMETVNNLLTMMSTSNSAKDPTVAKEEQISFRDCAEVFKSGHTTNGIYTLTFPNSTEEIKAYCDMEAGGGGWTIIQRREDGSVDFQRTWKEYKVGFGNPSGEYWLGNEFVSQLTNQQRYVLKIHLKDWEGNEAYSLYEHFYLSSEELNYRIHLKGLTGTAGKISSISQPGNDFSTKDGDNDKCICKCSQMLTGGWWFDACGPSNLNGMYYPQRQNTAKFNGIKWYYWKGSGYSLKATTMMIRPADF
Here is the method: as §1, §2, §3

The target in assay [4] is T4, mutant Ang2 protein, I434 substituted with alanine, FLAG-tagged at its N-terminal (human, UniProt O15123 19-496, limits assumed).
T4 sequence: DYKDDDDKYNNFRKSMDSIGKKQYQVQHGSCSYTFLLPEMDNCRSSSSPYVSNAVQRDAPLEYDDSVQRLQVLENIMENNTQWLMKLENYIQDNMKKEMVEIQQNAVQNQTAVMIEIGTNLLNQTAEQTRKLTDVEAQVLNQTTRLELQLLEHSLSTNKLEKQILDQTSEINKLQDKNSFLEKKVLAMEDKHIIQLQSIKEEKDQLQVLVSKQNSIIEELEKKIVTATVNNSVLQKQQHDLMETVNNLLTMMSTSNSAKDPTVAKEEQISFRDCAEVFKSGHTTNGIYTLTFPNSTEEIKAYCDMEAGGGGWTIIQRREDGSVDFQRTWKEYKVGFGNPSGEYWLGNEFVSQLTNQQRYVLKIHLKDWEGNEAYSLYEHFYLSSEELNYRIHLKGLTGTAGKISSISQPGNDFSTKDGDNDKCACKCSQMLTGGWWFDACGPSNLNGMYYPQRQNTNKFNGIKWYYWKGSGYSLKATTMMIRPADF
The protocol:
as §1, §2, §3

B1: SAIT-ANG2-AB-m10D6 (antibody, V domains shown)
VH: DVQLQESGPGLVKPSQSLSLTCTVTGYSITSDYAWNWIRQFPGNKLEWMGYINYSGNTDYNPSLKSRSSITRDTSKNQFFLQLNSVTTGDTATYYCARGNFEGAMDYWGQGTSVTVSS
VL: SIVMTQTPKFLLVSAGDRVTITCKASQSVSNDVAWYQQKPGQSPKLLIYYASNRYPGVPDRFTGSGYGTDFTFTISTVQAEDLAVYFCQQDYSSPWTFGGGTKLEIK
notes: also called antibody 10D6; anti-Ang2 antibody (10D6)
B1: the “binding affinity (%) with mutant Ang2 against the binding affinity with the native Ang2” value in assay [1] came to 38.9%; in assay [2], 109%; in assay [3] it was 107%; in assay [4], 109%.

(Values after US20150079112A1 (SAMSUNG ELECTRONICS, published 2015).)
